Consider three molecules from publication PMC4294129 (Drug Design, Development and Therapy, 2015).

One assay has as its system human platelets. Kind of assay: Collagen I-induced platelet aggregation in platelet rich plasma. It counts as cell-based. The note with it: 10 μM, 2 μg/mL collagen I, saline 85%±19%, mean ± SD, four donors.
Another assay deals with GST-tagged α2A domain (UniProt P17301). Kind of assay: ELISA. For orientation: In an ELISA, binding on a coated surface is turned into a signal by an enzyme label.
UniProt P17301, sequence (P17301 30-1181): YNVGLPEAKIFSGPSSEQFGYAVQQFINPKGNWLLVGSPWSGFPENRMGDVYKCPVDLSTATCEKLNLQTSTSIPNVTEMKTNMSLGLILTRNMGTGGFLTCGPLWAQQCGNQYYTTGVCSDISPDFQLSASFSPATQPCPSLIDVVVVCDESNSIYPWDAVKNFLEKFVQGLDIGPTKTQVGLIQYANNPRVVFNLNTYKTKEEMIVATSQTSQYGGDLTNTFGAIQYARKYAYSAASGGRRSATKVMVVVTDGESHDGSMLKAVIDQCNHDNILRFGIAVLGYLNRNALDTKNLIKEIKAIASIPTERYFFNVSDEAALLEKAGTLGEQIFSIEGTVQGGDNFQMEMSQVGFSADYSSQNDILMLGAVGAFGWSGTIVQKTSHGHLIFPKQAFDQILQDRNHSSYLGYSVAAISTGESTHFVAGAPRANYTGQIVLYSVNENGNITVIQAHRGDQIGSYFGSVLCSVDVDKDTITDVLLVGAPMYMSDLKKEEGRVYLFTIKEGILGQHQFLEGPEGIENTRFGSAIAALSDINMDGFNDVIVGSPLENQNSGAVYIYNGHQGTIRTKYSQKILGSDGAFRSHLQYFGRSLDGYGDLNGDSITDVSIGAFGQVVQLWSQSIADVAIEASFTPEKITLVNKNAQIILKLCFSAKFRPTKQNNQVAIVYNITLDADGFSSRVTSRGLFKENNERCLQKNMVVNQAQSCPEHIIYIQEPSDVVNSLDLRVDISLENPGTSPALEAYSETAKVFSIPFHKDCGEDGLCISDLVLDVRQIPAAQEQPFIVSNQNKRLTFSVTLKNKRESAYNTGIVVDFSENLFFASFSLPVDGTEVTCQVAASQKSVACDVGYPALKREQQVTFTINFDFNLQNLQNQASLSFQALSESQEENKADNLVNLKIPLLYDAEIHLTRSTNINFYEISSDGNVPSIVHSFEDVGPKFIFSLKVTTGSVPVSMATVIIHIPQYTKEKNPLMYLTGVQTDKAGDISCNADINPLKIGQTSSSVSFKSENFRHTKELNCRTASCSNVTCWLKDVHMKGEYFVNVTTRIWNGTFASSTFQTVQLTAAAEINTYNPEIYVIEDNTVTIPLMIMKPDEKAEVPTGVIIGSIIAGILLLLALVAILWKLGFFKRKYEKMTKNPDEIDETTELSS

As for `CC(=O)Oc1cc2c(s1)CCN(C(C(=O)C1CC1)c1ccccc1F)C2` (stereo not drawn) [prasugrel], the “platelet aggregation, collagen-induced, in PRP” value in the assay on human platelets is 34%±18%.
Vipegitide (peptide): the percent inhibition of GST-α2A binding to collagen I with GST-tagged α2A domain was determined as 30%.
Still for that read-out and setting: in the case of Vipegitide-PEG2 (peptide) it was 30%.
